Where two headings read alike, the source gives them in different places.
Experiments:
Assay in all cases: single-molecule TIRF microscopy
[1] = target: Taxol-stabilized rhodamine-labeled biotinylated microtubules (bovine) (UniProt Q6B856)
[2] = target: Taxol-stabilized rhodamine-labeled biotinylated microtubules (bovine) (UniProt Q6B856); remark: listed apart in the source
[3] = target: Taxol-stabilized rhodamine-labeled biotinylated microtubules (bovine) (UniProt Q6B856); remark: listed apart in the source
[4] = target: Taxol-stabilized rhodamine-labeled biotinylated microtubules (bovine) (UniProt Q6B856); remark: listed apart in the source
[5] = target: Taxol-stabilized rhodamine-labeled biotinylated microtubules (bovine) (UniProt Q6B856); remark: listed apart in the source
[6] = target: Taxol-stabilized rhodamine-labeled biotinylated microtubules (bovine) (UniProt Q6B856); remark: listed apart in the source
[7] = target: Taxol-stabilized rhodamine-labeled biotinylated microtubules (bovine) (UniProt Q6B856); remark: listed apart in the source
[8] = target: Taxol-stabilized rhodamine-labeled biotinylated microtubules (bovine) (UniProt Q6B856); remark: listed apart in the source
[9] = target: Taxol-stabilized rhodamine-labeled biotinylated microtubules (bovine) (UniProt Q6B856); remark: listed apart in the source
[10] = target: Taxol-stabilized rhodamine-labeled biotinylated microtubules (bovine) (UniProt Q6B856); remark: listed apart in the source
[11] = target: Taxol-stabilized rhodamine-labeled biotinylated microtubules (bovine) (UniProt Q6B856); remark: listed apart in the source
[12] = target: Taxol-stabilized rhodamine-labeled biotinylated microtubules (bovine) (UniProt Q6B856); remark: listed apart in the source

B1: GFP-tagged Kif4A (natural protein)
chain: MKEEVKGIPVRVALRCRPLVPKEISEGCQMCLSFVPGEPQVVVGTDKSFTYDFVFDPSTEQEEVFNTAVAPLIKGVFKGYNATVLAYGQTGSGKTYSMGGAYTAEQENEPTVGVIPRVIQLLFKEIDKKSDFEFTLKVSYLEIYNEEILDLLCPSREKAQINIREDPKEGIKIVGLTEKTVLVALDTVSCLEQGNNSRTVASTAMNSQSSRSHAIFTISLEQRKKSDKNSSFRSKLHLVDLAGSERQKKTKAEGDRLKEGININRGLLCLGNVISALGDDKKGGFVPYRDSKLTRLLQDSLGGNSHTLMIACVSPADSNLEETLNTLRYADRARKIKNKPIVNIDPQTAELNHLKQQVQQLQVLLLQAHGGTLPGSITVEPSENLQSLMEKNQSLVEENEKLSRGLSEAAGQTAQMLERIILTEQANEKMNAKLEELRQHAACKLDLQKLVETLEDQELKENVEIICNLQQLITQLSDETVACMAAAIDTAVEQEAQVETSPETSRSSDAFTTQHALRQAQMSKELVELNKALALKEALARKMTQNDSQLQPIQYQYQDNIKELELEVINLQKEKEELVLELQTAKKDANQAKLSERRRKRLQELEGQIADLKKKLNEQSKLLKLKESTERTVSKLNQEIRMMKNQRVQLMRQMKEDAEKFRQWKQKKDKEVIQLKERDRKRQYELLKLERNFQKQSNVLRRKTEEAAAANKRLKDALQKQREVADKRKETQSRGMEGTAARVKNWLGNEIEVMVSTEEAKRHLNDLLEDRKILAQDVAQLKEKKESGENPPPKLRRRTFSLTEVRGQVSESEDSITKQIESLETEMEFRSAQIADLQQKLLDAESEDRPKQRWENIATILEAKCALKYLIGELVSSKIQVSKLESSLKQSKTSCADMQKMLFEERNHFAEIETELQAELVRMEQQHQEKVLYLLSQLQQSQMAEKQLEESVSEKEQQLLSTLKCQDEELEKMREVCEQNQQLLRENEIIKQKLTLLQVASRQKHLPKDTLLSPDSSFEYVPPKPKPSRVKEKFLEQSMDIEDLKYCSEHSVNEHEDGDGDDDEGDDEEWKPTKLVKVSRKNIQGCSCKGWCGNKQCGCRKQKSDCGVDCCCDPTKCRNRQQGKDSLGTVERTQDSEGSFKLEDPTEVTPGLSFFNPVCATPNSKILKEMCDVEQVLSKKTPPAPSPFDLPELKHVATEYQENKAPGKKKKRALASNTSFFSGCSPIEEEAH
For B1, the lifetime on the microtubule (median) [1] was 4.2 s, the lifetime on the microtubule (median) [2] was 2.1 s and the lifetime on the microtubule (median) [3] was 7.2 s. The lifetime on the microtubule (median) [4] was 3.9 s, the lifetime on the microtubule (median) [5] was 3.6 s and the lifetime on the microtubule (median) [6] was 9 s. It also gave a lifetime on the microtubule (median) [7] of 4.9 s, a lifetime on the microtubule (median) [8] of 8.3 s and a lifetime on the microtubule (median) [9] of 17.9 s. For the same binder, the lifetime on the microtubule (median) [10] was 1.8 s, the lifetime on the microtubule (median) [11] was 1.2 s and the lifetime on the microtubule (median) [12] was 1.5 s.

Reference: paper doi:10.1101/2020.12.23.424221
